From the supplement of paper PMC10126150
± gives the standard deviation of the averaged measurements.

tested on: ATP; experiment: switch fluorescence ratio, 500 uM ATP over buffer (Cy3 cluster intensity, sum of 5 cycles each) (fold (ratio)); higher = stronger signal-on switching upon ATP binding; sequences stand for … in TCGTCGGCAGCGTCAGATGTGTATAAGAGACAGTTTTTTTTTTTTTTTTTTTTTTTTT…TC; conditions: aptamer strand: ATP DNA aptamer (quencher-CACCTGGGGGAGTATTGCGGAGGAAGG + anchor), 100 nM annealed; ATP concentration: 500 uM
Method in brief: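 The quencher-labelled ATP aptamer, at 100 nM, was annealed to Cy3-labelled switching-strand clusters on a modified Illumina MiSeq flow-cell. The clusters were imaged in selection buffer, then after 15 min with 500 uM ATP at 22 °C, and this buffer/ATP cycle ran five times with NaOH stripping and re-annealing between runs. Per-cluster fluorescence ratios, summed target-cycle over summed buffer-cycle Cy3 intensity, were averaged per switch-domain sequence. Clusters outside 100-1000 RFU were excluded.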
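Note: ATP exposure 15 min at 22 °C before imaging.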

| Sequence | switch fluorescence ratio |
| --- | --- |
| GACTGGAAGG | 1.01 ± 0.011 |
| GACTGGATTG | 0.996 ± 0.06 |
| GACTGGGCAG | 1.01 ± 0.011 |
| GACTGGGGAC | 1.01 ± 0.012 |
| GACTGGTCGA | 0.996 ± 0.053 |
| GACTGTCGAG | 0.991 ± 0.027 |
| GACTTATTTT | 0.9849 ± 0.0014 |
| GACTTGAGTT | 0.9971 ± 0.0091 |
| GACTTGTGGG | 1.02 ± 0.084 |
| GACTTTGGTG | 1.01 ± 0.026 |
| GACTTTTCCT | 1.3 ± 0.41 |
| GAGAAATACG | 1.47 ± 0.08 |
| GAGAAATGCG | 1.03 ± 0.012 |
| GAGAACGGTT | 1.03 ± 0.052 |
| GAGAAGCAGT | 1 ± 0.024 |
| GAGAAGGAGG | 1.01 ± 0.012 |
| GAGAAGGGAT | 0.999 ± 0.022 |
| GAGAATGAGG | 0.962 ± 0.0093 |
| GAGAATTATG | 0.9933 ± 0.0023 |
| GAGAATTGAA | 0.99 ± 0.014 |
| GAGAATTTGT | 0.978 ± 0.033 |
| GAGACAGCGC | 1.02 ± 0.062 |
| GAGACAGGAT | 1.01 ± 0.04 |
| GAGACATCGT | 0.986 ± 0.018 |
| GAGACGGAAT | 1.06 ± 0.025 |

| Sequence | switch fluorescence ratio |
| --- | --- |
| GAGACGGGGG | 1.02 ± 0.033 |
| GAGACGTTGG | 0.985 ± 0.014 |
| GAGACTTGGG | 1.03 ± 0.029 |
| GAGAGAGGGT | 0.997 ± 0.014 |
| GAGAGAGTGA | 0.963 ± 0.025 |
| GAGAGATGTT | 0.999 ± 0.021 |
| GAGAGATTTT | 0.997 ± 0.034 |
| GAGAGCAAGT | 1.14 ± 0.034 |
| GAGAGCGGTG | 0.9953 ± 0.0075 |
| GAGAGGAAAT | 1.004 ± 0.0059 |
| GAGAGGATGG | 0.984 ± 0.042 |
| GAGAGGCACA | 1.02 ± 0.051 |
| GAGAGGGGGT | 0.998 ± 0.05 |
| GAGAGGGTAG | 0.9801 ± 0.0095 |
| GAGAGGGTCA | 0.98 ± 0.025 |
| GAGAGGTTTT | 1 ± 0.029 |
| GAGAGTATAA | 0.99 ± 0.022 |
| GAGAGTATGG | 0.982 ± 0.049 |
| GAGAGTGACA | 1.01 ± 0.062 |
| GAGAGTGGCA | 0.988 ± 0.031 |
| GAGAGTTGTG | 0.988 ± 0.034 |
| GAGATAGGTT | 1.03 ± 0.073 |
| GAGATATATG | 0.983 ± 0.052 |
| GAGATCTAGT | 1.01 ± 0.019 |
| GAGATGAAAC | 0.976 ± 0.011 |

| Sequence | switch fluorescence ratio |
| --- | --- |
| GAGATGTGGT | 0.985 ± 0.031 |
| GAGATGTTTT | 0.988 ± 0.043 |
| GAGATTATGG | 0.966 ± 0.022 |
| GAGATTGAGG | 1.02 ± 0.038 |
| GAGATTGGAA | 1.002 ± 0.0025 |
| GAGATTTAGT | 0.973 ± 0.049 |
| GAGCAAAAGG | 1.004 ± 0.0058 |
| GAGCAAGGTT | 1.24 ± 0.2 |
| GAGCAGCATT | 1.05 ± 0.014 |
| GAGCCAGATT | 1.0095 ± 0.00059 |
| GAGCCAGGCA | 0.974 ± 0.042 |
| GAGCCCGCAG | 1.6 ± 0.038 |
| GAGCCCTTAT | 0.9812 ± 0.0078 |
| GAGCCTTATG | 0.994 ± 0.033 |
| GAGCGAATAG | 1.46 ± 0.055 |
| GAGCGGGTAC | 1.41 ± 0.03 |
| GAGCGGGTTG | 0.9835 ± 0.0056 |
| GAGCGTAAGT | 0.958 ± 0.03 |
| GAGCTAACGG | 1.011 ± 0.0073 |
| GAGCTAAGCT | 0.981 ± 0.018 |
| GAGCTAAGGA | 0.981 ± 0.029 |
| GAGCTGGAGG | 1 ± 0.017 |
| GAGCTTCTAG | 1.03 ± 0.015 |
| GAGCTTGCTG | 0.9992 ± 0.0083 |
| GAGGAACCGG | 1.05 ± 0.021 |

| Sequence | switch fluorescence ratio |
| --- | --- |
| GAGGAAGGGG | 1 ± 0.016 |
| GAGGAATCGA | 1.04 ± 0.065 |
| GAGGAATTTA | 1.02 ± 0.028 |
| GAGGAGCGTT | 0.9804 ± 0.007 |
| GAGGAGGATG | 0.987 ± 0.013 |
| GAGGAGGGAC | 0.989 ± 0.05 |
| GAGGAGGGTA | 0.966 ± 0.086 |
| GAGGAGTAGG | 1.08 ± 0.036 |
| GAGGAGTGGT | 0.984 ± 0.015 |
| GAGGATTTAA | 1 ± 0.03 |
| GAGGCAAGG | 1.341 ± 0.0038 |
| GAGGCAGTTA | 1.11 ± 0.046 |
| GAGGCATTGC | 1.65 ± 0.24 |
| GAGGCCCATT | 1 ± 0.043 |
| GAGGCCGATT | 1.02 ± 0.011 |
| GAGGCGACGT | 0.963 ± 0.027 |
| GAGGCGGAGG | 1 ± 0.028 |
| GAGGCGGCAT | 1.04 ± 0.0066 |
| GAGGCGGCGG | 1.067 ± 0.0051 |
| GAGGCGGTGG | 1.009 ± 0.005 |
| GAGGCTGGGA | 0.988 ± 0.032 |
| GAGGCTGGGC | 0.973 ± 0.053 |
| GAGGCTTCTA | 1.02 ± 0.036 |
| GAGGGAAGAG | 1.01 ± 0.021 |
| GAGGGAAGGG | 0.994 ± 0.011 |
